A short description of data set [1]: purified protein yield per well (BCA); higher = higher soluble expression. In outline:
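Values under 25 ug (0.1 mg/mL) are below the detection threshold. Purified protein yield per well was quantified with the Pierce Rapid Gold BCA kit after candidate enzymes, expressed in E. coli C41(DE3), were captured on Ni-charged magnetic beads and released by SUMO protease on an OT-2 robot. Cultures were 2 mL autoinduction with 100 µg/mL kanamycin, run 2 h at 37 °C and then 40 h at 18 °C.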

Data set [2] can be described thus: melting temperature (DSF); higher = more thermostable. An outline of the steps:
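Enzymes made in E. coli C41(DE3) were nickel-bead purified and cut free with SUMO protease before testing. Differential scanning fluorimetry gave each melting temperature. For this, 5 μL 5X Sypro Orange was added to 45 μL enzyme (0 to 0.3 mg/mL) in sealed PCR plates, and a Bio-Rad CFX96 read fluorescence from 25 °C over 250 cycles of 0.3 °C each, ramping at 0.3 °C/s.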

A short description of data set [3]: PET hydrolysis, aromatic products released after 48 h (umol product/mg enzyme); higher = more PET depolymerization activity. In outline:
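Sealed plates containing 3.5 mg PET (amorphous film or crystalline powder), 450 μL buffer and 5 μg (50 μL) tagless candidate enzyme were held 48 h at 40 or 60 °C with no shaking. Supernatants were then read at 260 and 280 nm against buffer blanks. The aromatic product detected this way, per mg enzyme, defines PET hydrolysis activity.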

[4] abbreviates: substrate: cryPow, 40 °C, pH 4.5.
Where [5] appears, read: substrate: cryPow, 40 °C, pH 5.5.
[6] abbreviates: substrate: cryPow, 40 °C, pH 6.5.
The mark [7] stands for this setting: substrate: cryPow, 40 °C, pH 7.5.
Setting [8] is: substrate: cryPow, 60 °C, pH 4.5.
The mark [9] stands for this setting: substrate: cryPow, 60 °C, pH 5.5.
[10] abbreviates: substrate: cryPow, 60 °C, pH 6.5.
Where [11] appears, read: substrate: cryPow, 60 °C, pH 7.5.
The mark [12] stands for this setting: substrate: aFilm, 40 °C, pH 4.5.
Setting [13] is: substrate: aFilm, 40 °C, pH 5.5.
Setting [14] is: substrate: aFilm, 40 °C, pH 6.5.
Where [15] appears, read: substrate: aFilm, 40 °C, pH 7.5.
The mark [16] stands for this setting: substrate: aFilm, 60 °C, pH 4.5.
Where [17] appears, read: substrate: aFilm, 60 °C, pH 5.5.
Where [18] appears, read: substrate: aFilm, 60 °C, pH 6.5.
The mark [19] stands for this setting: substrate: aFilm, 60 °C, pH 7.5.

± gives the standard deviation of the averaged measurements.

“ADNPYQRGPDPTRASVAAENGPFANTSVSAPTGYGFNGGRIYYPTDTSQGTFGAIAISPGYTALFSAELAWMGPWLASHGFVVIGIETNSRNDFDTARGTQLLAALDYLTQQSPVRDRIDPNRLAVSGHSMGGGGALSAAMRRSSLKAVVGITPYSPSSNLANVQVPAMVISGQADTVVTPSYALGLYNSLPASTESAYLEVAGGDHGFMVGRSNPVLIRTMLPFVKMFVDNDARYSQFLCPLLDNSGVVTYRSTCPLLPPPTATPTPTGTPTPTPTPTVSPTTPPNSANRIVGVQSGRCIDVPNASRDNGTRVQLYDCHGQSNQSWTYTASKQLRVYGDMCLDAGGSGNGAGIQIYSCHSQTNQQWNVNSNGTISGVQSGRCLDVWSTSNGAQVQLYDCHGQTNQQFNLVPLT [TEP167]”: the “purified protein yield per well” value in data set [1] was 180 µg. The sequence also yielded a melting temperature in data set [2] of 57.1 C. Further, the PET hydrolysis in data set [3] (setting [4]), in data set [3] (setting [5]), in data set [3] (setting [6]), in data set [3] (setting [7]), in data set [3] (setting [8]) and in data set [3] (setting [9]) was under 3 throughout. Besides, the PET hydrolysis in data set [3] (setting [10]) and in data set [3] (setting [11]) was under 3 each time.

Regarding “DVNPFQRGPDPTAAGVAAARGPFATAQVTVPAGNGFGGGVVYYPTDTSQGTFGAIAIAPGYGTAWSYYAWQGPRLASFGFVVIGIETNTLNDYADARAAQLLAALDWLVTSSPVRDRVDRNRLAVGGHSMGGGGALLAAIQRPSLMTAIGMAPYVPGGDLSGIRIPTVLFAGQTDGTVTPSYALSAYTTIPGSVERAYVEIANEGHGFPAGGGGGNSGAFARTEMIWMKLFIDKDTRYAPFLCPSLSNMNGISRYQASCPLDPPGGTTPTPSATPTSSPTSTPTSTPSATSALRGAGSSRCLDVPGASQTNGTQLQIWDCNGQANQRWTSTSAGELRVYGGKCLDVNGAGTADGTSVIIWDCNGQNNQKWRLNSDGSITAVGANKCLDVSGAGTANGTKVQIWTCNGQANQRWTRT [ESM026]”, the “purified protein yield per well” value in data set [1] came to 305 µg. In data set [2], this sequence gave a melting temperature of 65.8 C. Moreover, the PET hydrolysis in data set [3] (setting [12]), in data set [3] (setting [13]), in data set [3] (setting [14]), in data set [3] (setting [15]), in data set [3] (setting [16]) and in data set [3] (setting [17]) was under 3 in each case. For the same sequence, the PET hydrolysis was under 3 in data set [3] (setting [18]); under 3 in data set [3] (setting [19]); under 3 in data set [3] (setting [4]); 4.5 ± 0.71 in data set [3] (setting [5]); 8.5 ± 0.71 in data set [3] (setting [6]); 9.5 ± 0.71 in data set [3] (setting [7]). For the same sequence, the PET hydrolysis in data set [3] (setting [8]), in data set [3] (setting [9]), in data set [3] (setting [10]) and in data set [3] (setting [11]) was under 3 each time.

“AADNPYQRGPDPTPASVSANRGTFATTQVAVAAGNGFGGGVIYYPTDTSQGQFGAIAVVPGYTATWAAEGAWMGHWLASFGFVVIGIDTNNRNDWDTARGTQLLAALDYLTQRSSVRDRVDATRTAVMGHSMGGGGAASASLQRPSLKASIGLAPASFSQNLTTTRVPTMLLSGQNDTTITPASVVNLYNGIPASVEKAYLELSGAGHGFPTSNNSTMMRNVIPWFKVFVDSDTRYTQFLCPLANWSGIRTYQSTCPLVPSTPPTSTTTSTTTSTTTSTTTTTTPQPVGACNATYRTTNSWPGGYQGEVTVTAGESGVNGWTTRWTLGSGQTVTQVWNGTLTVDGSTASVRNAAYNGSLPAGGSAAFGFIGGGTPPTSLTCTSP [ESM023]”: the “purified protein yield per well” value in data set [1] came to 221 µg. In data set [2], the melting temperature was found to be 55 C. The PET hydrolysis was under 3 in data set [3] (setting [4]); under 3 in data set [3] (setting [5]); under 3 in data set [3] (setting [6]); 5 in data set [3] (setting [7]); under 3 in data set [3] (setting [8]); under 3 in data set [3] (setting [9]). The PET hydrolysis in data set [3] (setting [10]) and in data set [3] (setting [11]) was under 3 throughout.

Take “VQIGPNPTKSSLEASRGPFSTSQFTVSRPSGYGAGTVYYPTNAGAKVGAIAIVPGFLSYQSSINWWGPRLASHGFVVITIDTYTTGDQPDSRSRQQLAALDQVIALGNTSSSPIYGKVDGSRTGVMGWSMGGGGSLISAKNRPSIKAAAPQAPWNTSTNFSSVTVPTLIFACQSDIVAPVISHAIPFYNSMTRNPKQYLEKTLGDHFCFNNANATVGLKGVAWMKRFVDGDTRYTSFACSNPNAFGFSDFRTARCS [ESM045]”: the “purified protein yield per well” value in data set [1] came out at 30.4 µg. In data set [2], this sequence displayed a melting temperature of 63.4 C. Further, the PET hydrolysis in data set [3] (setting [4]) was determined as 5; in data set [3] (setting [5]), 12; in data set [3] (setting [6]), 22; in data set [3] (setting [7]), 35.

Take “DSPYQRGPDPTLASVAATRGPFATTQATVPAGNGFNGGFVYYPTDTSLGTWGAVAIVPGYSALFANEEAWMGPWLASFGFVVLGIETNSRTDGADARATQLLAGLDYLTRTSPVRSRVDANRLGVMGHSAGGAGTLLAALRRPSLKTAVGLAPGTPGNNLNMSTTQVPTLLLSGQNDGTVTPSYVQGIYNTLPATVEHAWAELAGNDHLSFTRSNPTEMRLLIPWLKIFLDSDTRYTQFLCPLADSTGVSRYSSTCPLVPSGGPTPPPTTTPPPPTTTPPPTSTPPPPTTTPPPTTPPAGTACTATYRTVNSWSGGFQAEVTVTAGSTATDGWTVRWNLGAGQSVSQVWNGTLSTSGTTATVRNAAYNGTLAPGTSTTFGFLGSGTPSSPSPTCTSP [ESM011]”: the “purified protein yield per well” value in data set [1] was 240 µg. Further, the melting temperature in data set [2] worked out at 62.2 C. The PET hydrolysis in data set [3] (setting [12]), in data set [3] (setting [13]), in data set [3] (setting [14]), in data set [3] (setting [15]), in data set [3] (setting [16]) and in data set [3] (setting [17]) was under 3 in each case. Besides, the PET hydrolysis in data set [3] (setting [18]), in data set [3] (setting [19]), in data set [3] (setting [4]), in data set [3] (setting [5]), in data set [3] (setting [6]) and in data set [3] (setting [7]) was under 3 throughout. Also, the PET hydrolysis in data set [3] (setting [8]), in data set [3] (setting [9]), in data set [3] (setting [10]) and in data set [3] (setting [11]) was under 3 throughout.

With “GQAPTTAAQVRASAFAKGPDPTEQTIKAQRGPFQIKQLSVAAQSGRGFNRGTIYYPTDTGQGTYGAIAVIPGFLEPEFITSWYGPTLASYGFVVMTLEPFAITDFPDPRSNQLLAAVDWLAADSPVKAQVDPNRLAVMGHSMGGGGALLAASKRPSLKAAVPLAPWNLYADFAGVTVPTLVIGADNDFIAPVGMHADPMYASIKASPNEGYLKLKNADHFTVNSYSATLTKFTVSWMKRYVDEDTRYTQFLCPAPQPDPSFASFQMTCPS [TEP173]”, the “purified protein yield per well” value in data set [1] was found to be 293 µg. This sequence gave a melting temperature in data set [2] of 41.2 C. Besides, the PET hydrolysis in data set [3] (setting [12]), in data set [3] (setting [13]), in data set [3] (setting [14]), in data set [3] (setting [15]), in data set [3] (setting [16]) and in data set [3] (setting [17]) was under 3 each time. Further, the PET hydrolysis in data set [3] (setting [18]), in data set [3] (setting [19]), in data set [3] (setting [4]), in data set [3] (setting [5]), in data set [3] (setting [6]) and in data set [3] (setting [7]) was under 3 each time. Also, the PET hydrolysis in data set [3] (setting [8]), in data set [3] (setting [9]), in data set [3] (setting [10]) and in data set [3] (setting [11]) was under 3 throughout.

For the origin of these results see the supplement of paper PMC12455559.
